For orientation: stoichiometry N means the number of molecules, sites or subunits per partner or assembly.

Several values for one entry are separate records, joined by “and”; a condition that tells them apart may be missing. Equal values may be shown once.

For 14 substances, ratio of dimer to hexamer (dimer:hexamer) and stoichiometry N results are on record in paper PMC2927733.

Experiment [1] has as its target PccB R456A (Streptomyces coelicolor). Kind of experiment: SEC.
The target in experiment [2] is wild type PccB, β subunit of propionyl-CoA carboxylase (PCC) of Streptomyces coelicolor (Streptomyces coelicolor). Kind of experiment: SEC. In general terms: Size exclusion chromatography separates by hydrodynamic size, large species first.
The target of experiment [3] is PccB D422V (Streptomyces coelicolor). Kind of experiment: SEC.
Experiment [4] shares this target. Briefly: crystal structure.
The target of experiment [5] is PccB D422Y (Streptomyces coelicolor). Briefly: SEC.
The target in experiment [6] is PccB D422N (Streptomyces coelicolor). Briefly: SEC.
Experiment [7] shares this target. Kind of experiment: crystal structure.
The target of experiment [8] is PccB D422L (Streptomyces coelicolor). Kind of experiment: SEC.
Experiment [9] has the same target. Kind of experiment: crystal structure.
Experiment [10] concerns the target PccB D422A (Streptomyces coelicolor). Kind of experiment: crystal structure.
Experiment [11] addresses PccB D422C (Streptomyces coelicolor). Kind of experiment: SEC.
Experiment [12] has the same target. Kind of experiment: crystal structure.
The target of experiment [13] is PccB D422I (Streptomyces coelicolor). Briefly: SEC.
Experiment [14] concerns the target PccB R456A/R457A (Streptomyces coelicolor). Kind of experiment: SEC.
The target in experiment [15] is PccB N80A (Streptomyces coelicolor). Briefly: SEC.
Experiment [16] addresses PccB D422Q (Streptomyces coelicolor). Kind of experiment: SEC.
Experiment [17] deals with PccB D422E (Streptomyces coelicolor). Kind of experiment: SEC.
For experiment [18], the target named is PccB D422F (Streptomyces coelicolor). Kind of experiment: SEC.

As to PccB R456A (enzyme), in experiment [1], the ratio of dimer to hexamer (dimer:hexamer) was 2.2; the stoichiometry N is 2 and 6.

In the case of “wild type PccB, β subunit of propionyl-CoA carboxylase (PCC) of Streptomyces coelicolor (enzyme)”, in [2], the stoichiometry N turned out to be 6. In the case of PccB D422V (enzyme), the stoichiometry N in experiment [3] and in [4] was 6 each time. As for PccB D422Y (enzyme), the stoichiometry N in experiment [5] amounted to 6. With PccB D422N (enzyme), the stoichiometry N in [6] and in experiment [7] was 6 throughout. Regarding PccB D422L (enzyme), the stoichiometry N in experiment [8] and in experiment [9] was 6 throughout.

In turn, PccB D422A (enzyme) yielded a stoichiometry N in experiment [10] of 6. Turning to PccB D422C (enzyme), the stoichiometry N in experiment [11] and in experiment [12] was 6 each time. PccB D422I (enzyme): the stoichiometry N in experiment [13] came out at 6. For the substance PccB R456A/R457A (enzyme), in experiment [14], the ratio of dimer to hexamer (dimer:hexamer) came out at 2.9; the stoichiometry N was 2 and 6.

As to PccB N80A (enzyme), in experiment [15], the ratio of dimer to hexamer (dimer:hexamer) came out at 2; the stoichiometry N is 2 and 6. For the substance PccB D422Q (enzyme), in experiment [16], the stoichiometry N was 2 and 3. Turning to PccB D422E (enzyme), in experiment [17], the stoichiometry N was found to be 6. For the substance PccB D422F (enzyme), the stoichiometry N in [18] is 2 and 3.
